Assay results: patent CN111574631A

Assays:
硫氧还蛋白(Thioredoxin，Trx) [1] = test: indirect ELISA, Trx coated at 1 ug/ml, antibody 1000 ng/ml, goat anti-mouse IgG-HRP, OD450 (ref 630)
硫氧还蛋白(Thioredoxin，Trx) [2] = test: indirect ELISA, Trx coated at 3 ug/ml, supernatant of transiently transfected CHO cells diluted 1000-fold, goat anti-mouse-HRP, OD450 (ref 630)
硫氧还蛋白(Thioredoxin，Trx) [3] = test: indirect ELISA, Trx coated at 1 ug/ml, antibody 125 ng/ml, goat anti-mouse IgG-HRP, OD450 (ref 630)
硫氧还蛋白(Thioredoxin，Trx) [4] = test: indirect ELISA, Trx coated at 1 ug/ml, antibody 1.95 ng/ml, goat anti-mouse IgG-HRP, OD450 (ref 630)
硫氧还蛋白(Thioredoxin，Trx) [5] = test: indirect ELISA, Trx coated at 1 ug/ml, antibody 0 ng/ml (blank well), goat anti-mouse IgG-HRP, OD450 (ref 630)
硫氧还蛋白(Thioredoxin，Trx) [6] = test: indirect ELISA, Trx coated at 1 ug/ml, antibody 15.63 ng/ml, goat anti-mouse IgG-HRP, OD450 (ref 630)

硫氧还蛋白(Thioredoxin，Trx), sequence (P0AA25 2-109): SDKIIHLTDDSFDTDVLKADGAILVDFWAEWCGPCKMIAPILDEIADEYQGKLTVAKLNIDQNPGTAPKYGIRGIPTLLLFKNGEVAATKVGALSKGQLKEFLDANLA

OD (硫氧还蛋白(Thioredoxin，Trx) [1]): 2.31 OD
OD (硫氧还蛋白(Thioredoxin，Trx) [2]): > 1 OD
OD (硫氧还蛋白(Thioredoxin，Trx) [3]): 2.14 OD
OD (硫氧还蛋白(Thioredoxin，Trx) [4]): 0.488 OD
OD (硫氧还蛋白(Thioredoxin，Trx) [5]): 0.057 OD
OD (硫氧还蛋白(Thioredoxin，Trx) [6]): 1.62 OD
B1: 实施例4的硫氧还蛋白的单克隆抗体(WT) (antibody, mouse IgG1, kappa, V domains shown)
VH: EVQLQQSGPMLVKPGASVTISCKASGFTITDYNLHWVRQSHGKSLEWIGYITSYNGGTGYNQKFKTKATLTVDKSSTTAYMELRSLTSDDSALYYCARNFRNYFEHWGQGTTLTVSS
VL: DIQMTQPTSSLSASLGDRVTISCRASQDLYNSINWYQQKPDGTVKLLIYYTSRIHSGVPSRFSGSGSGTDYSLTISNLEQEDIATYFCQQGNSIPRTFGGGTKLEIKR
